In the supplement of paper PMC9876800:

Test system: peptide library, one residue held at a place counted from the S/T acceptor
Test: relative phosphorylation of the sub-library (ratio to the mean residue at this position); higher = residue favoured
Details: human
Outline: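 Spots on streptavidin membranes were phosphorimaged and quantified by densitometry to measure phosphorylation of biotinylated degenerate peptide sub-libraries by purified recombinant kinases, human or orthologue constructs. The reactions ran in 384-well plates for 90 min under kinase-specific conditions, with peptides at 50 μM and 50 μM ATP spiked with γ-32P-ATP. Relative sub-library phosphorylation is the ratio to the mean residue at that position.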

Chain of MAK, construct: Full length (P20794 whole entry, looked up): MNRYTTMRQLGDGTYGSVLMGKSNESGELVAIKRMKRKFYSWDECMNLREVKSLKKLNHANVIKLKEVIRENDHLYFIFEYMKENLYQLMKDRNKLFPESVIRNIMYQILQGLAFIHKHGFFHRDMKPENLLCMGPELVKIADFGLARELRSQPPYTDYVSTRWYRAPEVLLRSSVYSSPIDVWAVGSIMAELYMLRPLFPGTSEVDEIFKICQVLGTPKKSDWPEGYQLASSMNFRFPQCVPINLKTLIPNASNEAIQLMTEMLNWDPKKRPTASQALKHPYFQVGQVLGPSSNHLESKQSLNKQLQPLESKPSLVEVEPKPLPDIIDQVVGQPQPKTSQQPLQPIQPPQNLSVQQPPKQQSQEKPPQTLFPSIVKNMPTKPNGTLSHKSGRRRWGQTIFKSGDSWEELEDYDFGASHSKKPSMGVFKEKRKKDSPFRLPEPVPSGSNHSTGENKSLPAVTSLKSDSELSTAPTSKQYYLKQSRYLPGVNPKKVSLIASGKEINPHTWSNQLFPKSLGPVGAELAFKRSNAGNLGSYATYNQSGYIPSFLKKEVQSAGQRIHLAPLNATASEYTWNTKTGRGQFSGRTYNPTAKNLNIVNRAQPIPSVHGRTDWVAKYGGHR

MAK, construct: Full length (from UniProt P20794)
relative phosphorylation
Details | at +1 | at +2 | at +3 | at +4 | at -1 | at -2 | at -3 | at -4 | at -5
A fixed | 2.18 | 1.07 | 0.904 | 0.995 | 1.19 | 0.647 | 0.835 | 1.16 | 1.16
D fixed | 0.175 | 1.06 | 0.653 | 0.701 | 0.423 | 0.165 | 0.276 | 0.752 | 0.824
E fixed | 0.155 | 0.749 | 0.523 | 0.677 | 0.32 | 0.18 | 0.251 | 0.781 | 0.745
F fixed | 0.321 | 0.762 | 0.858 | 0.704 | 0.498 | 0.159 | 0.201 | 0.633 | 0.864
G fixed | 2.02 | 1.56 | 1.51 | 1.49 | 1.8 | 0.63 | 0.653 | 1.33 | 1.5
H fixed | 0.308 | 1.09 | 1.32 | 1.19 | 0.982 | 0.251 | 0.428 | 0.856 | 0.994
I fixed | 0.431 | 0.736 | 0.785 | 0.785 | 0.315 | 0.476 | 0.291 | 0.647 | 0.745
K fixed | 0.324 | 1.01 | 1.37 | 1.21 | 1.92 | 0.779 | 0.872 | 1.06 | 0.989
L fixed | 0.394 | 1.03 | 1.06 | 0.853 | 0.638 | 0.632 | 0.356 | 0.707 | 0.723
M fixed | 0.445 | 0.979 | 0.901 | 0.878 | 1.07 | 0.406 | 0.309 | 0.803 | 0.855
N fixed | 0.322 | 1.05 | 0.924 | 0.995 | 0.94 | 0.313 | 0.382 | 0.732 | 0.726
P fixed | 7.71 | 0.986 | 1.21 | 1.36 | 1.51 | 8.65 | 2.32 | 1.8 | 1.9
Q fixed | 0.393 | 0.939 | 0.904 | 0.898 | 1.13 | 0.394 | 0.513 | 0.898 | 1.03
R fixed | 0.759 | 1.08 | 1.47 | 1.48 | 2.24 | 2.32 | 8.51 | 2.58 | 1.36
V fixed | 0.455 | 0.907 | 0.978 | 0.877 | 0.63 | 0.631 | 0.302 | 0.81 | 0.821
W fixed | 0.329 | 0.988 | 0.801 | 1.01 | 0.616 | 0.192 | 0.238 | 0.725 | 0.725
Y fixed | 0.274 | 1 | 0.831 | 0.908 | 0.788 | 0.178 | 0.254 | 0.725 | 1.04
pThr fixed | 0.401 | 0.534 | 0.748 | 0.735 | 0.265 | 0.377 | 0.408 | 0.851 | 0.905
pTyr fixed | 0.326 | 0.839 | 0.706 | 0.678 | 0.338 | 0.212 | 0.365 | 0.759 | 0.912

MAP2K2, construct: aa306-end (from UniProt P36507)
relative phosphorylation
Details | at +1 | at +2 | at +3 | at +4 | at -1 | at -2 | at -3 | at -4 | at -5
A fixed | 0.617 | 1.06 | 0.962 | 0.933 | 0.978 | 0.833 | 1.06 | 0.961 | 1.08
D fixed | 1.32 | 0.532 | 0.643 | 0.706 | 0.63 | 0.982 | 0.744 | 1.13 | 1.01
E fixed | 0.689 | 0.364 | 0.589 | 0.62 | 0.606 | 0.819 | 0.803 | 1.01 | 0.781
F fixed | 1.49 | 0.907 | 1.05 | 0.995 | 1.19 | 2.06 | 1.51 | 1.05 | 0.965
G fixed | 0.624 | 0.787 | 1.22 | 1.08 | 1.35 | 0.713 | 0.737 | 1.14 | 1.07
H fixed | 0.836 | 3.02 | 1.3 | 1.08 | 1.01 | 2.51 | 0.945 | 1.04 | 0.996
I fixed | 1.55 | 0.963 | 1.02 | 0.968 | 0.735 | 0.626 | 1.18 | 0.808 | 0.73
K fixed | 0.453 | 0.771 | 0.833 | 0.882 | 1.03 | 0.674 | 0.649 | 0.799 | 1.01
L fixed | 1.46 | 0.795 | 0.981 | 0.927 | 1.49 | 0.763 | 1.4 | 0.984 | 0.789
M fixed | 1.89 | 1.13 | 0.865 | 0.862 | 1.32 | 1.09 | 1.58 | 1.05 | 0.943
N fixed | 0.537 | 0.756 | 0.744 | 0.755 | 0.696 | 0.768 | 0.63 | 0.921 | 0.962
P fixed | 0.347 | 0.681 | 0.947 | 1.02 | 0.494 | 0.46 | 0.691 | 0.857 | 1.11
Q fixed | 0.625 | 0.8 | 0.742 | 0.79 | 0.842 | 0.705 | 0.585 | 0.835 | 0.819
R fixed | 0.474 | 0.847 | 0.926 | 0.985 | 1.34 | 0.966 | 0.787 | 0.929 | 1.1
V fixed | 1.03 | 0.875 | 0.933 | 0.74 | 0.874 | 0.562 | 0.885 | 0.789 | 1.14
W fixed | 1.36 | 1.18 | 1.51 | 1.96 | 1.08 | 1.29 | 1.38 | 1.38 | 1.25
Y fixed | 1.7 | 1.54 | 1.73 | 1.69 | 1.34 | 1.18 | 1.44 | 1.31 | 1.25
pThr fixed | 0.823 | 0.505 | 0.611 | 0.607 | 0.404 | 0.431 | 0.575 | 0.741 | 0.914
pTyr fixed | 0.886 | 0.37 | 0.827 | 0.673 | 0.592 | 0.431 | 0.675 | 0.795 | 0.953
